The series is described as follows: soluble fraction after stress (log2 fold change); higher = more stays soluble; pooled small domains, quantitative proteomics. To be noted: stress: 50 degC. The method in brief: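 Pooled custom libraries of small protein domains were measured in a high-throughput format, with quantitative proteomics as the read-out. Each library was stressed at 50°C. Aggregation propensity is given as the base-two logarithm of the fold change in how much of each protein stays soluble after the stress. Higher values mean a larger share of the protein remains in solution.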
As to “HMHTADDFKQLAKQTSNGQLRTRYLALYLFKNGETRTQIATYLGVARGSVNTWVSNYLAHGLEGLQSKP”, the “soluble fraction (log2)” value was -2.65.

With “HMKITTKNYFKAIAEVGVENLPAALKKSHDLIEERTSKGADWSVYEHDAEVRRVFDLTFEKLFEFIDQ”, the “soluble fraction (log2)” value is -0.363. Next, “HMQVSITGYLGGEKIGLFDDAKFKALAAKQGIAIDYRKAGSPAMMDADRKGMDYLFPSSRAAVEYGNAKGV”: -0.009; “HMDTFYKNLSKKIKTIREKLSFSQEALAKELGISRVAISQIENGDRKISAEEIAKLSRVFNVPTDILLN”: 0.187. Next, “HMNSTNYQVIITANGGLNIRAGASTAYARIGGYAKGTVVTILAESNGFGKTDKGWISLNYTSKDLD”: -3.07; “HMTEEPISDGIKKLVEEWENIEGNLIMIFHGIQKHYGYVPRNVAKYVSEAIDVPLTRIYEILTFYNYFTM”: 0.142. Next, “HMSREVTVPPLSGLTLRDAARTLAERGLLMEAEGQGAVHRQDPPAGTRVPTGTPVRVFLTLPEQNS”: 0.333. “HMYFEDEELDRFVGTPAGAYTEEDVEEFRDVLLSLDIEEVPSWVRSLQLRGIDFPETLRPELYLL”: the “soluble fraction (log2)” value is -3.14. Next, “HMQEISQEEALATVLKDLSLTEADLKDLQITREEDKYKILFSKGQTAYDVLVSAKDGQLLQSKQETI”: -0.165. With “HMKEFEINSQWKPSLEVYDILSVKGGISRNFIEDSIPEFVLYWRGRGDKSNTWDSKFVQHVKRQWNFYSGL”, the “soluble fraction (log2)” value was -3.32.

On to “HMSINIDEEKKILGPNADQIIKGITTWGQGLVSKGIWSDADFEEFKIFAATGNGINALNKVRKYY”, for which the “soluble fraction (log2)” value was -0.255. Next, “HMFTEEEMTKLRHELILAGIRLSRELGLQRMSVEKITSAVGIAKGSFYIFFDSKEDFILEIADHANRE”: -1.06; “HMTSTSVKYVNSSSGLNVRKGPSTSYDKVTTLVNGTKVTVISTNNGWSKITSGSITGYVSSQYLSSSS”: -0.147. For “HMATVHPIRIQGGMTTQQGGKTVWLWVSDEGRLMTEDEIAGESGGTVSSRMVRGVRVLTGTGVIYG”, the “soluble fraction (log2)” value is -2.02. Next, “HMDILPEGNYKVNYDVIDEVGNIVANKNDIVVTEKSIKPLNTILGIDLYEVIHSQTGKYFTINGDNLTN”: -0.00162; “HMVLGSSVAMGQKIGDSDLTWVEVPLSSAFDRFLSEPEWRGSSDLVAARLLEAGVFLTEDDVVE”: 0.0949; “HMTLGSVRTVRQVLDDGRLLVADSGGNVTLVRRAGTLAKENVNTGDRVSVDSSVRFALTLIPV”: -0.0338.

With “HMNAKKSTLQLDLLKQLLEGNKISLKDFSLSNEISIRTAQRYIEDLLEIFEKNIVKEGDFYSFIS”, the “soluble fraction (log2)” value was -2.3. In the case of “HMRKSAVSSTLTSIEGIGATRAKALLKHFKTVAAVSEADLKELEDAPGMTRPSALRVYEYFHGK” it was -0.165. Consider “HMLDGFEVGMTVMKKSGTEIGFTGWPSFADKDELPIIERIDTSDSTLLLKFKDMSWWIKASLVEPS”, for which the “soluble fraction (log2)” value is -1.62. As to “HMVVDEQRIQTLVSAAEQNSSDPVPRVTLGNLYFDAEQFEEAVKWYEQALALDPRNVNVSTDLGVGYYY”, the “soluble fraction (log2)” value was -0.00895. Next, “HMRKTIQDFLSSNKVDIAKLLTLALEKTKEDLYKNLSYNLTNKELEKLKLLIKKREQGIPFAYLS”: -0.0368. In the case of “HMNSHKIIDRLNQMITEKDLSEEMPAITEAFKNNERSAEDLKKYVAENLSKKLNAEEREKFVSLILQYRN” it was 0.039; in that of “HMSSDEDELESIIKRVFADNPIELERLQNGEDKLIKFFMGLVMRQTKGKYPPKIIIDLLNKS”, -0.411. Next, “HMAVKLELYRVFKEVAETGNISAAAKNLYISQSAVSQSIKQLETALQARLFARSPRGVTLTGEGQMLYQYV”: -1.44. Regarding “HMSTMKSKWFVSSNPIAGVMKYQAQRKKDVNAVDSSENREASGQWYTDKEEAQAIVDKLNAEEQIKEAGK”, the “soluble fraction (log2)” value amounted to 0.159. In the case of “HMDEVPMPPEYQYLRVGSRVHHATFGWGKVTRLSQPWPQTRAEVFFENIGPKKLVLAHAHLTMD” it was -0.727; in that of “HMLIIMNSDATKEQVDHVTSRVREAGFKDHIMPGAGKVAIGVTGTGDYDQTKLHLEILPGVFKIMRITK”, 0.0895. As to “HMNKTVKIPNVSNLSREDAESVLKENGISVNSEVKQIESDTIEKGKVVKTDPSIGTSVKKGRSITIYVSSG”, the “soluble fraction (log2)” value came to 0.0637. Next, “HMLPDLQKAIDTFLYEVDSRINTSFEELIDKLNSKEEAVAFFLALLEAVRWGFIKAEQESNSINIKK”: -0.565. In the case of “HMVDQKLIQASAEHSGIRIDRFLSEQLPEHSRSYIQKLIKDGQVSIGGKAVKSNYKIAGTEEISLLIPDQ”, the “soluble fraction (log2)” value came to 0.0523. As for “HMRRISLEDWQLIESLIRRDWSPEQISLWLKKYKKIRVSHEWIYQYILKDKSKAGDLHTHLRSR”, the “soluble fraction (log2)” value was -0.174.

Turning to “HMSTEDYLKTIYILESQQGVHGSDVARMLKVTRPTVSIALKALEQEGYVWMDESRLVHLTDSGLQIAKDT”, the “soluble fraction (log2)” value was -1.12.

Consider “HMLTRQRKQLLEYLSKHTDEQMTARQIADALTAESISISAVYRNLSALEEEGILKRSIRENTREVYYQYIA”, for which the “soluble fraction (log2)” value is -0.973. Next, “HMAEPAEDLLSLEGMDKGLAYQLASNGVVTREDLAELATDDLLEIREMDAEQAAALIMKAREHWFEAEQQ”: 0.211; “HMSQTDQALRHLIREAWATLPQRQQQAVELAYYEGLPDTEIAARLNQPVEEVKTSIVLGMAHLREALHSY”: -0.583; “HMGYINLNVKVSPEWRDFWRSAYASVVAGYHQNKEHWNTIILDGSIPDKDIKRMIAESYDLVSD”: -0.797.

Consider “HMQKPIKPVKMHTVGPKENLSSIGRMYEVNGRVLANYNNIDYDKGLTIGQVLKIPPKGTTLEQVT”, for which the “soluble fraction (log2)” value worked out at 0.431.

Turning to “HMDPLGHVIKKKRLQLGMTLRDLAAKAGVHHATIDRIETDQFKVVDPSTLVKIAEALHLDQLYLLSLN”, the “soluble fraction (log2)” value was -0.0139. In the case of “HMDDHLRLSDNERISAMSALATHFTEGRLDTSEFDERTLAASQAKSRGDLRPLFDDLPGQLPAALSP” it was 0.0376. In the case of “HMSSKAVLEKFEALFIDQMLQSMRKATVRSELFDSEGIKLYESLFDKEISEELAKSGGLGLTKDLEQQL” it was -0.888; in that of “HMEAGTEYVERAADYIRSHFQEDLTVSKLALYVGLNRSYLTTVFQNTLHVSPQQFLMRFRMERAAQLLD”, 0.0719; in that of “HMGEMTDFETLRDMYLTGQIWNIDDLIEANGVEGRIVRRGTNYIAFNDRDGKVHKAWLHEVTINE”, -0.836.

Take “HMHKAVVGPPNARKLAVTYGFKRWPALVFFRDGKYLGAVDGLRLWADLVREADEIMHSEPHYP”: the “soluble fraction (log2)” value was -0.166.

For the sequence “HMNTDVEKQKVFTALFDDYFRRNSMTSLEKQLFLTALKTNFQNAQKTVAKDHPYYATYSLIISAIENYR”, the “soluble fraction (log2)” value was found to be 0.145. In the case of “HMSRGTLFVDVRGAVAKPGVYELPEKSRVFQAVEAAGGLLPEALERLVNQAAELTDGQQVYIPFEGEE” it was 0.296; in that of “HMEPDEQAVKALIAEIDKLSKEKLTLKHEKKLKELREIYDDFTEEEKKLVTNYDILVKMEKRMEVLKKQEG”, 0.111; in that of “HMPDYAFEGVVIKLTHRDYDRWKAGFPDVDLPPYLTARDAWLSEQTPADRKNWFVSTATDLRNFQKREAI”, -1.66. For the sequence “HMTDYREILRLLSLGLSRTQIADSLNVSRTTVIHTLQRAVAQELDWQTAEGMSDRELVAKLFPV”, the “soluble fraction (log2)” value is -3.47. In the case of “HMVEPTDFTYLKAEVETAKALKQADYTVATWKSFAGELAEAEEVIAKTDASQAEVNEALSHLQAAEKELV” it was 0.175.

(Values after the domain aggregation screens of Martell et al. (2025).)
